Laboratory results from patent publication US10934351B2, “Cancer stem cell-specific molecule” (CHUGAI SEIYAKU KABUSHIKI KAISHA, priority 2011, dated 2021).

Legend:
[1] = test system: irinotecan-non-treated PLR123; test: Internalization activity / anti-tumor effect with Mab-ZAP or Rat-ZAP (CellTiter-Glo); type: cell-based, human; conditions: with Mab-ZAP or Rat-ZAP 1 μg/ml, 72 hours
Experimental: (§1) Mab-ZAP and Rat-ZAP are anti-mouse IgG antibody and anti-rat IgG antibody, respectively, conjugated with saporin, a toxin that inhibits protein synthesis (Advanced Targeting Systems). To assess the activity of internalization into irinotecan-non-treated cells, PLR59 and PLR123 cells were seeded at a cell density of 30000 cells/80 μl/well to respective wells of a 96-well plate. Following day, each antibody solution was added at a final concentration of 0.01, 0.1, or 1 μg/ml to the respective wells. Then, Mab-ZAP or Rat-ZAP was added at a final concentration 1 μg/ml to the respective wells, and the plate was incubated at 37° C. for 72 hours in a CO2 incubator. To assess the activity of internalization into irinotecan-treated cells, PLR59 and PLR123 cells were seeded in a 96-well plate, and irinotecan was added at a final concentration of 15 μM to each well. The plate was incubated at 37° C. for 72 hours in a CO2 incubator. Various antibodies were assessed for the activity of internalization to cells cultured as described above in the presence or absence of irinotecan. For assay, the various antibodies were each assessed for the internalization activity into cells contained in each well where the medium was replaced with the same irinotecan-free medium as used for irinotecan-non-treated cells. Seventy-two hours after addition of antibodies and Mab-ZAP or Rat-ZAP, 10 μl of 3% SDS (Nacalai Tesque) was added to each well of the plate. The cells in the plate were lysed thoroughly by stirring the plate using a plate mixer. Then, 100 μl of CellTiter-Glo™ Luminescent Cell Viability Assay (Promega) was added to each well. The mixture in each well was assayed to determine its luminescent signal. […] In Table 14, symbols, −, +, ++, and +++, represent relative values for the internalization activity when a test antibody was assayed at a concentration of […]. […] Symbols, −, +, ++, and +++, indicate that the relative value is less than 5%, 5% or more and less than 15%, 15% or more and less than 25%, and 25% or more, respectively.

[2] = test system: irinotecan-non-treated PLR59; test: as above; type: cell-based, human; conditions: with Mab-ZAP or Rat-ZAP 1 μg/ml, 72 hours
Experimental: as §1

[3] = test system: irinotecan-treated PLR123; test: as above; type: cell-based, human; conditions: PLR123, Irinotecan-treated (15 μM, 72 hours)
Experimental: as §1

irinotecan-treated PLR59 = test: as above; type: cell-based, human; conditions: PLR59, Irinotecan-treated (15 μM, 72 hours)
Experimental: as §1

[4] = test system: irinotecan-non-treated PLR123; test: Flow cytometry (FCM) binding activity of commercially available antibodies to cell-surface antigens; parameters: species or system human; conditions: with antibody
Experimental: (§2) The present inventors tested whether an anti-tumor effect can be expected with target therapy using a membrane protein expressed at a high level as the target in irinotecan-treated or non-treated PLR59 and PLR123. Commercially available antibodies shown in Table 12 were assessed by flow cytometry (FCM) for the binding activity to antigens expressed on the cell surface of irinotecan-treated or non-treated PLR59 or PLR123.

[5] = test system: irinotecan-non-treated PLR59; test: as above; parameters: species or system human; conditions: with antibody
Experimental: as §2

PLR123 = test: Differentiation-enhancing effect of BMP4 (CK20 expression, quantitative real-time PCR); type: cell-based, human; conditions: BMP4 20 nM; irinotecan-non-treated and irinotecan-treated PLR123 (FIG. 73B)
Experimental: (§3) BMP4 was assessed for the differentiation-enhancing effect on irinotecan-non-treated and irinotecan-treated PLR59 and PLR123. To assess the differentiation-enhancing effect on irinotecan-non-treated cells, PLR59 and PLR123 cells suspended in the media where BMP4 (R&D Systems; a final concentration of 20 nM) or a control buffer was added to culture media were seeded at a cell density of 5×10^5 cells/1.5 ml/well to each well of a 12-well plate. The cells were passaged while changing the culture media with the same type of medium 2, 4, and 7 days after seeding. To assess the differentiation-enhancing effect on irinotecan-treated cells, PLR59 or PLR123 was seeded at a cell density of 17×10^5 cells/5 ml/flask to a 12.5-ml culture flask. Following day, irinotecan was added at a final concentration of 15 μM. The flask was incubated at 37° C. for 72 hours in a CO2 incubator. Then, the medium in the flask was changed with a medium containing BMP4 or a control buffer. The medium was further changed with the same type of medium 2, 4, and 7 days after the initial medium change. […]
(§4) Quantitative real-time PCR was carried out using the cDNAs isolated as described above.

PLR59 = test: as above; type: cell-based, human; conditions: BMP4 20 nM; irinotecan-non-treated and irinotecan-treated PLR59 (FIG. 73A)
Experimental: as §3, §4

B1: EPCAM (protein)
chain: QEECVCENYKLAVNCFVNNNRQCQCTSVGAQNTVICSKLAAKCLVMKAEMNGSKLGRRAKPEGALQNNDGLYDPDCDESGLFKAKQCNGTSMCWCVNTAGVRRTDKDTEITCSERVRTYWIIIELKHKAREKPYDSKSLRTALQKEITTRYQLDPKFITSILYENNVITIDLVQNSSQKTQNDVDIADVAYYFEKDVKGESLFHSKKMDLTVNGEQLDLDPGQTLIYYVDEKAPEFSMQGLKAGVIAVIVVVVIAVVAGIVVLVISRKKRMAKYEKAEIKEMGEMHRELNA
**Q.** B1 was tested. Which internalization activity level [1] did it give?
**A.** +++ (25% or more)

**Q.** What about the internalization activity level [2] of the same molecule?
**A.** +++ (25% or more)

**Q.** And the internalization activity level [3]?
**A.** +++ (25% or more)

**Q.** And the internalization activity level (irinotecan-treated PLR59)?
**A.** +++ (25% or more)

**Q.** What about the “binding activity by flow cytometry (FCM), Antibody +” value [4] of the same molecule?
**A.** 7701

**Q.** And the “binding activity by flow cytometry (FCM), Antibody +” value [5]?
**A.** 7563

B2: BMP4: bone morphogenetic protein 4, polypeptide of SEQ ID NO: 4 (R&D Systems) (protein, listed as Homo sapiens)
chain: MIPGNRMLMVVLLCQVLLGGASHASLIPETGKKKVAEIQGHAGGRRSGQSHELLRDFEATLLQMFGLRRRPQPSKSAVIPDYMRDLYRLQSGEEEEEQIHSTGLEYPERPASRANTVRSFHHEEHLENIPGTSENSAFRFLFNLSSIPENEVISSAELRLFREQVDQGPDWERGFHRINIYEVMKPPAEVVPGHLITRLLDTRLVHHNVTRWETFDVSPAVLRWTREKQPNYGLAIEVTHLHQTRTHQGQHVRISRSLPQGSGNWAQLRPLLVTFGHDGRGHALTRRRRAKRSPKHHSQRARKKNKNCRRHSLYVDFSDVGWNDWIVAPPGYQAFYCHGDCPFPLADHLNSTNHAIVQTLVNSVNSSIPKACCVPTELSAISMLYLDEYDKVVLKNYQEMVVEGCGCR
**Q.** With B2 as the molecule, how does the CK20 expression level (PLR123) read?
**A.** elevated CK20 levels

**Q.** And the CK20 expression level (PLR59)?
**A.** elevated CK20 levels
